Laboratory results from publication PMC3229523, “Identification of Lactoferricin B Intracellular Targets Using an Escherichia coli Proteome Chip” (PLoS ONE, 2011).
Ends that are not written are not given here. * marks the point of attachment. Biotin = O=C1N[C@H]2[C@H](CS[C@H]2CCCCC(=O)*)N1

How the values were obtained:
Test in all cases: peptide or protein array; E. coli proteome chip: purified His-tagged proteins printed in duplicate on Fullmoon slides, blocked with 1% BSA; 10 nM N-terminal biotinylated LfcinB with 1% BSA, room temperature, 1 h; detected with DyLight 649-labeled streptavidin, ratio to DyLight 549-labeled anti-His antibody; ProCAT normalisation, local cut-off; triplicate chips
Details in all cases: both partners purified
[1] = target: T1, YcgK (E. coli K-12, UniProt P76002 23-133)
T1 construct: YcgK, E. coli K-12
T1 sequence (looked up): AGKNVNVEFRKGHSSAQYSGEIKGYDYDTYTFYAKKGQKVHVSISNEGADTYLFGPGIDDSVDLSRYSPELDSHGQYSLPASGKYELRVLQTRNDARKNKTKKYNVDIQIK

[2] = target: T2, GlgS (E. coli K-12, UniProt P26649 1-66)
T2 construct: GlgS, E. coli K-12
T2 sequence (looked up): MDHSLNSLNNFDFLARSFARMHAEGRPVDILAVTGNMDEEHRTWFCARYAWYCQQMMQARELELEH

[3] = target: T3, RhaD (E. coli K-12, UniProt P32169 1-274)
T3 construct: RhaD, E. coli K-12
T3 sequence (looked up): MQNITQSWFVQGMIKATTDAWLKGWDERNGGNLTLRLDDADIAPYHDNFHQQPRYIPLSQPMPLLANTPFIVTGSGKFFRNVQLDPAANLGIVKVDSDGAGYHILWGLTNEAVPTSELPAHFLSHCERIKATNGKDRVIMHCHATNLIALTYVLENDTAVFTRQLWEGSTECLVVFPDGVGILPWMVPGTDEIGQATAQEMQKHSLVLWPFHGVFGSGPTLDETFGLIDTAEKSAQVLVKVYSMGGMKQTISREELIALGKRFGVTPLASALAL

[4] = target: T4, ArgH (E. coli K-12, UniProt P11447 1-457)
T4 construct: ArgH, E. coli K-12
T4 sequence (looked up): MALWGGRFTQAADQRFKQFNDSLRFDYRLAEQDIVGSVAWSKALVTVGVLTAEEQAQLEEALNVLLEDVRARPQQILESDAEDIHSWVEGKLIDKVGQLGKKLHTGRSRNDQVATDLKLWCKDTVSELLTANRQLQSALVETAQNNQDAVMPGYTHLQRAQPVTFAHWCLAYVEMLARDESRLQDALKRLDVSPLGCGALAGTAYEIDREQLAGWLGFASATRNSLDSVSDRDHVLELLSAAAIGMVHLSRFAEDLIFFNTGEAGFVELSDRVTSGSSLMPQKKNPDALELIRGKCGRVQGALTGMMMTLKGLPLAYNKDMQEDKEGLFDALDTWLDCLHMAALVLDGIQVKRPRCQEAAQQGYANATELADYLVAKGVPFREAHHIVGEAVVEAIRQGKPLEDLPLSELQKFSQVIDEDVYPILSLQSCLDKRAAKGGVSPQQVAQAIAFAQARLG

[5] = target: T5, YjeS (E. coli K-12, UniProt P39288 1-379)
T5 construct: YjeS, E. coli K-12
T5 sequence (looked up): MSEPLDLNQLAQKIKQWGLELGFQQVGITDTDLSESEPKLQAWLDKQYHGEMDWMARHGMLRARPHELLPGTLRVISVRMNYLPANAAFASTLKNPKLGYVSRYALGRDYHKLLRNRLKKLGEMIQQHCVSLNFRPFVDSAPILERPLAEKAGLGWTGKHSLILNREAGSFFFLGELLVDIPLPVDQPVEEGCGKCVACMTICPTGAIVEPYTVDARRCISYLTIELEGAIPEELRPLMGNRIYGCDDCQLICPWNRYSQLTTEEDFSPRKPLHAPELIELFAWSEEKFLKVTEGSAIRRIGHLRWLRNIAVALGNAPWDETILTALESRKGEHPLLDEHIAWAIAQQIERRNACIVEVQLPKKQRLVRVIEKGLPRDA

[6] = target: T6, YceC (E. coli K-12, UniProt P0AA39 1-319)
T6 construct: YceC, E. coli K-12
T6 sequence (looked up): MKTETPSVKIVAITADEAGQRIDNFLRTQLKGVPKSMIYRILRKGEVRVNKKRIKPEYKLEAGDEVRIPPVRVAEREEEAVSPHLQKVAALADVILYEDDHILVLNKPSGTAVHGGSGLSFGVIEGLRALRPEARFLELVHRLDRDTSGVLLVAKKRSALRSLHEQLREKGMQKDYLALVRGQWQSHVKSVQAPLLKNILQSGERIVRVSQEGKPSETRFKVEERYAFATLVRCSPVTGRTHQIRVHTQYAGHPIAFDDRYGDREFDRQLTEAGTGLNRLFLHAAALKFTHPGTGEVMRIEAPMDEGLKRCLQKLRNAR

Measured: binding result

B1: N-terminal biotinylated Lactoferricin B (peptide, UniProt P24627 36-60, looked up)
peptide: Biotin-FKCRRWQWRMKKLGAPSITCVRRAF
modifications: ends and bridges not checked
notes: lactoferricin B (LfcinB), cationic antimicrobial peptide of 25 amino acids; also called biotinylated LfcinB; biotin-labeled LfcinB; source: bought: Kelowna Inc
binds: all assays above
